From patent publication US20220362330A1, “Compositions and Methods for Increasing Epithelial Barrier Function” (The Board of Trustees of the Leland Stanford Junior …, priority 2019, published 2022)

Key:
desmocollin-1 (DSC1) = test: qRT-PCR of Dsc1 gene expression in vaginal tissue; format: in vivo, mice
Method: (§1) To define progestin-mediated changes in mucosal permeability, vaginal tissue from mice in estrus, diestrus, or after DMPA or LNG treatment was used to measure expression of the desmosomal cadherins desmoglein-1a (DSG1a) and desmocollin-1 (DSC1).
(§2) Human ectocervical and murine vaginal tissues were immediately immersed in 1 mL of RNAlater® (Qiagen), stored for 24 h at 4° C., and stored long-term at −80° C. RNA isolated using the RNeasy Lipid Tissue Kit (Qiagen) using manufacturer's instructions was re-suspended in nuclease-free water and quantified using a NanoDrop spectrophotometer (Thermo Scientific). The following mouse primers were utilized: desmocollin 1 (Mm00496525_ml), desmoglein-1α (Mm00809994_s1), ephrinA3 (Mm01212723_g1) and pyruvate carboxylase (Mm00500992_ml) as housekeeping reference gene (all from Thermo Scientific). These human primers were used: desmoglein-1 (Hs00355084_m1) and glucose-6-phosphate isomerase (Hs00976711_m1) as a housekeeping reference gene. To define relative gene expression, 100 ng of RNA was mixed with TaqMan® RNA-to-Ct™ 1-Step Kit and adequate primer (final volume of 10 μL/well) using manufacturer's instructions (Life Technologies). qRT-PCR was performed using a Quantstudio3 Thermal Cycler, and data analyzed via Quanstudio Software (Applied Biosystems).

DSG1 protein = DSG1 protein levels in vaginal tissue, immunofluorescent staining and confocal microscopy; format: in vivo, mice; conditions: for levels of DSG1 protein in vaginal tissue: His-tagged ephrins 1.5 ug/30 uL ivag; for levels of DSG1 protein in vaginal tissue / DSG1 protein levels in vaginal tissue: 24 h; for DSG1 protein levels in vaginal tissue: OVX mice, single ivag dose
Method: Excised mouse vaginas were formaldehyde fixed and paraffin embedded (FFPE), and 10 μm sections mounted on glass slides and de-paraffinized by sequential immersion in 100% xylene, 100% ethanol, 96% ethanol, and sterile DEPC-treated water. Antigen retrieval was performed using 10 mM sodium citrate buffer (pH 6.0) containing 0.05% Tween 20 (both Sigma-Aldrich) (20 minutes at 95° C.). After 3 PBS washes, sections were incubated overnight in 10% normal goat serum (Abcam, Cambridge Mass.) at 4° C., then incubated for 1 h at ambient temperate with rabbit anti-desmoglein-1 (clone EPR6766(B)) antibody, washed and incubated for 1 h with AlexaFluor® 488-labeled goat anti-rabbit IgG (antibodies from Abcam) (all antibodies were diluted in PBS with 1% BSA and 0.05% Tween 20). Sections were stained with DAPI and evaluated for levels of DSG1 protein (defined by calculating pixel numbers per 100 μm^2) using confocal microscopy and ImageJ software.

desmoglein-1a (DSG1a) = test: qRT-PCR of Dsg1a gene expression in vaginal tissue; format: in vivo, mice; conditions: for relative expression of Dsg1a: DMPA-treated mice, His-tagged ephrins 1.5 ug/30 uL ivag; for relative expression of Dsg1a / Dsg1a gene expression in vaginal tissue: 24 h; for Dsg1a gene expression in vaginal tissue: OVX mice, single ivag dose
Method: as §1, §2

genital mucosal barrier [1] = test: Murine tissue permeability assay, low molecular weight fluorescent molecules given intravaginally; format: in vivo, mice
Method: Effects of progestins on genital mucosal barrier permeability were evaluated by intravaginally (ivag) administering 457 Da and 70 KDa-sized fluorescent molecules to mice in estrus or diestrus-stage or after DMPA or LNG treatment. Mice were grouped as follows: untreated in estrus, untreated in diestrus, DMPA treated, or LNG treated. The mice were intravaginally administered a PBS solution containing Lucifer yellow (457 Da) and Texas-Red-conjugated dextran (70 KDa). Animals were euthanized 45 minutes later to assess vaginal tissue penetration of these molecules by confocal microscopy. […] Mucosal permeability was increased moderately by diestrus, but dramatically by DMPA or LNG. Conversely, permeability increases were negligible in estrus-stage mice and mice treated with MePRDL or DMPA and RU486. This indicates exogenous progestins increase genital mucosal permeability.
To evaluate mucosal permeability to low molecular weight molecules, indicated groups of mice were sedated, and 10 μL of a PBS solution containing 62.5 μg of dextran Texas-Red® (DR) (MW=70,000 Da) and 50 μg of Lucifer yellow CH, lithium salt (LY) (MW=457.2 Da) (both from Life Technologies) administered intravaginally. 45 minutes later, mice were euthanized, and excised vaginal tissue fixed in formaldehyde. Fixed tissue was embedded in agarose, and 200-300 μm specimens were sectioned with a vibratome. After counterstaining with 4,6-diamidino-2-phenylindole (DAPI), confocal microscopy images were acquired by sequential scanning to prevent fluorescence crossover.

[2] = system: claudin-1, occludin, and tight junction protein 1; test: Gene expression of other cell-cell adhesion molecules in vaginal tissue; format: in vivo, mice
genital mucosal barrier [3] = test: Murine tissue permeability assay, low molecular weight fluorescent molecules given intravaginally; format: in vivo, mice; conditions: OVX mice, single dose, vs untreated OVX mice
HSV-1 = test: Genital HSV-1 GFP infection, virus replication in vaginal epithelium; format: in vivo, mice; conditions: DMPA-treated mice
Method: Estrus-stage or DMPA-treated mice were intravaginally administered vehicle or recombinant mouse Fc-EFNA3 at 1.5 ug/30 uL 24 h prior to genital infection with 3×10^3 PFU HSV-1q GFP (fluorescent virus). Vaginal tissue was recovered 24 h after infection and evaluated for HSV-1 replication in the vaginal epithelium using confocal microscopy. […] To evaluate if treatment with rm-EphrinA3 protects mice from lethal HSV-2 infection, DMPA-treated mice were intravaginally administered Fc- or His-tagged versions of the rm-protein prior to infection. […] Because the microarray data indicated EphrinA1, EphrinA2, EphrinA3, EphrinA4, and EphrinA5 were upstream regulators of Dsg1 and Dsc1 expression in the mouse vagina, we hypothesized that capacity of EphrinA3 to increase cell-cell adhesion molecule expression may be shared by other members of the EphrinA family.

HSV-2 = test: Lethal genital HSV-2 infection; format: in vivo; conditions: DMPA-treated mice
Method: Mice were sedated with xylazine (Lloyd Laboratories, Shenandoah Iowa) and ketamine hydrochloride (JHP Pharmaceuticals, LLC Rochester Mich.), and intravaginally infected with 10^4 plaque-forming units (pfu) of WT HSV-2 333 in 10 μL of RPMI. Mouse mortality was evaluated daily for 15 days.

[4] = progestin-treated mice vs mice in estrus

`C#C[C@]1(O)CC[C@H]2[C@@H]3CCC4=CC(=O)CC[C@@H]4[C@H]3CC[C@@]21CC` [LNG, reference compound] was tested, and the “DSC1 gene expression in vaginal tissue” value (desmocollin-1 (DSC1); [4]) was “decrease gene expression levels”, the “DSG1a protein expression in vaginal tissue” value (DSG1 protein; [4]) was “significantly reduced” and the “DSG1a gene expression in vaginal tissue” value (desmoglein-1a (DSG1a); [4]) was “decrease gene expression levels”. For the same molecule, the “penetration of the 457 Da molecules into vaginal tissue” value (genital mucosal barrier [1]; confocal images, 45 minutes after ivag administration) was “greatest penetration”, the Mucosal permeability increase (genital mucosal barrier [1]; mice, ivag Lucifer yellow (457 Da) and Texas-Red dextran (70 KDa), 45 minutes, confocal microscopy) was “dramatically” and the “gene expression of claudin-1, occludin, and tight junction protein 1” value [2] was “did not alter”.

B1: EphrinA3: mouse recombinant EphrinA3; Fc- or His-tagged version not always specified at the place (protein, UniProt O08545 23-206, looked up)
Ephrin-A3: QGPGGALGNRHAVYWNSSNQHLRREGYTVQVNVNDYLDIYCPHYNSSGPGGGAEQYVLYMVNLSGYRTCNASQGSKRWECNRQHASHSPIKFSEKFQRYSAFSLGYEFHAGQEYYYISTPTHNLHWKCLRMKVFVCCASTSHSGEKPVPTLPQFTMGPNVKINVLEDFEGENPQVPKLEKSISG
In the case of B1, the “Dsc1 gene expression in vaginal tissue” value (desmocollin-1 (DSC1); OVX mice, single ivag dose, 24 h) is reported as “increases”, the “genital mucosal barrier function (penetration of lucifer yellow, 457 Da)” value (genital mucosal barrier [3]) is reported as “improved function of the genital mucosal barrier” and the “genital mucosal barrier function (penetration of lucifer yellow, 457 Da)” value (genital mucosal barrier [3]; listed as EFNA3) is reported as “enhanced genital mucosal barrier function”. For the same molecule, the “levels of DSG1 protein in vaginal tissue” value (DSG1 protein; DMPA-treated mice) was “similarly increase”, the “levels of DSG1 protein in vaginal tissue” value (DSG1 protein; DMPA-treated mice, listed as EFNA3) was “increased levels of DSG1 protein” and the “DSG1 protein levels in vaginal tissue” value (DSG1 protein) was “greatly improved”. For the same molecule, the “DSG1 protein levels in vaginal tissue” value (DSG1 protein; listed as EFNA3) was “increases”, the “relative expression of Dsg1a” value (desmoglein-1a (DSG1a)) was “increased relative expression” and the “Dsg1a gene expression in vaginal tissue” value (desmoglein-1a (DSG1a)) was “greatly improved”. For the same molecule, the “Dsg1a gene expression in vaginal tissue” value (desmoglein-1a (DSG1a); listed as EFNA3) was “increases”, the “genital mucosal barrier function / permeability to LMW fluorescent molecules” value (genital mucosal barrier [1]; DMPA-treated mice, one ivag dose of 1.5 ug/30 uL) was “enhanced genital mucosal barrier function” and the “HSV-1 replication in mouse genital tissue” value (HSV-1) was “reduced”. For the same molecule, the reduction of mortality (HSV-2; one ivag dose (Fc- or His-tagged) prior to lethal HSV-2 infection, compared to DMPA alone) was “approximately 25%”.

B2: His-EFNA3: Ephrin A3 Protein, Mouse, Recombinant (His Tag), SEQ ID NO: 15 (protein, UniProt P52797 23-214, looked up)
Ephrin-A3: QGPGGALGNRHAVYWNSSNQHLRREGYTVQVNVNDYLDIYCPHYNSSGVGPGAGPGPGGGAEQYVLYMVSRNGYRTCNASQGFKRWECNRPHAPHSPIKFSEKFQRYSAFSLGYEFHAGHEYYYISTPTHNLHWKCLRMKVFVCCASTSHSGEKPVPTLPQFTMGPNVKINVLEDFEGENPQVPKLEKSISG
modifications: His tag
With B2 the “levels of DSG1 protein in genital tissue” value (DSG1 protein; DMPA-treated mice, ivag in 10 μL of PBS, 24 hours) was “increased levels of DSG1 protein” and the “survival after genital HSV-2 infection” value (HSV-2; 10^4 pfu of HSV-2) was “improves the survival”.

B3: EphrinA2: Ephrin A2/EFNA2 Protein, Mouse, Recombinant (His Tag), SEQ ID NO: 17 (protein)
chain: MAPAQRPLLPLLLLLLPLRARNEDPARANADRYAVYWNRSNPRFQVSAVGDGGGYTVEVSINDYLDIYCPHYGAPLPPAERMERYILYMVNGEGHASCDHRQRGFKRWECNRPAAPGGPLKFSEKFQLFTPFSLGFEFRPGHEYYYISATPPNLVDRPCLRLKVYVRPTNETLYEAPEPIFTSNHHHHHH
modifications: His tag
With B3 the “levels of DSG1 protein in vaginal tissue” value (DSG1 protein; DMPA-treated mice) was “similarly increase”, the “levels of DSG1 protein in vaginal tissue” value (DSG1 protein; DMPA-treated mice, listed as EFNA2) was “increased levels of DSG1 protein” and the “relative expression of Dsg1a” value (desmoglein-1a (DSG1a)) was “increased relative expression”.
